Laboratory results published in patent publication US8444970B2, “Compositions and methods for treating ocular diseases and conditions” (Lpath, Inc., priority 2006, dated 2013).

Columns and labels:
HUVECs = experiment: HUVEC migration, Matrigel chemoinvasion assay; assay type: cell-based, human; conditions: 1 uM S1P, 1 ug/ml antibody, 6 hr
Description: FIG. 5. FIG. 5 has two panels, A and B. In panel A, S1P is shown to promote neovascularization through induction of HUVECs tube formation and migration, which is reduced by SPHINGOMAB. […] The number of cells that migrated to the Matrigel membrane were counted in five independent fields.
Experiments were performed as described by Visentin et al. (Cancer Cell 2006 March; 9(3):225-38).

WI-38 lung fibroblasts = experiment: S1P-induced differentiation into myofibroblasts (alpha-SMA immunoblot); assay type: cell-based; conditions: 1 ug/mL antibody, 12-24 hr
Description: FIG. 7. […] See Example 7, below, for experimental details. […] In these experiments, fibroblasts were serum-starved and then treated with 0, 0.1, 0.5, or 1 μM S1P+/−1 μg/mL SPHINGOMAB for 12-24 hr. […] SPHINGOMAB neutralized each of these S1P effects. SPHINGOMAB reduced perivascular fibrosis in vivo in a murine model of a permanent myocardial infarction (E).
S1P makes profound contributions to wound healing by activating fibroblast migration, proliferation and collagen production; SPHINGOMAB neutralizes these effects. Several studies using multiple types of fibroblasts confirm S1P's ability to promote wound healing: 1) S1P increased Swiss-3T3 fibroblast proliferation as measured by ^3H-thymidine incorporation using standard methods (FIG. 7A); 2) S1P promoted the migration of cardiac fibroblasts in a standard scratch wound healing assay. […] In each of these assays, SPHINGOMAB neutralized S1P's. It is anticipated that ocular fibroblasts would respond similarly to S1P and SPHINGOMAB.

B1: LT1002: murine anti-S1P monoclonal antibody, IgG1 kappa, hybridoma clone 306D326.26 (antibody, listed as Mus sp., V domains shown)
VH: QAHLQQSDAELVKPGASVKISCKVSGFIFIDHTIHWMKQRPEQGLEWIGCISPRHDITKYNEMFRGKATLTADKSSTTAYIQVNSLTFEDSAVYFCARGGFYGSTIWFDFWGQGTTLTVS
VL: ETTVTQSPASLSMAIGEKVTIRCITTTDIDDDMNWFQQKPGEPPNLLISEGNILRPGVPSRFSSSGYGTDFLFTIENMLSEDVADYYCLQSDNLPFTFGSGTKLEIK
B1 was tested, and the “S1P-induced HUVEC tube formation and migration” value (HUVECs) was “reduced” and the “S1P-induced differentiation of WI-38 fibroblasts into myofibroblasts” value (WI-38 lung fibroblasts) was “neutralized”.
